Assays:
Experiment in all cases: fluorescence anisotropy
[1] = molecular target: T1, SA2 (STAG2) (UniProt Q8N3U4 1-1231)
T1 sequence: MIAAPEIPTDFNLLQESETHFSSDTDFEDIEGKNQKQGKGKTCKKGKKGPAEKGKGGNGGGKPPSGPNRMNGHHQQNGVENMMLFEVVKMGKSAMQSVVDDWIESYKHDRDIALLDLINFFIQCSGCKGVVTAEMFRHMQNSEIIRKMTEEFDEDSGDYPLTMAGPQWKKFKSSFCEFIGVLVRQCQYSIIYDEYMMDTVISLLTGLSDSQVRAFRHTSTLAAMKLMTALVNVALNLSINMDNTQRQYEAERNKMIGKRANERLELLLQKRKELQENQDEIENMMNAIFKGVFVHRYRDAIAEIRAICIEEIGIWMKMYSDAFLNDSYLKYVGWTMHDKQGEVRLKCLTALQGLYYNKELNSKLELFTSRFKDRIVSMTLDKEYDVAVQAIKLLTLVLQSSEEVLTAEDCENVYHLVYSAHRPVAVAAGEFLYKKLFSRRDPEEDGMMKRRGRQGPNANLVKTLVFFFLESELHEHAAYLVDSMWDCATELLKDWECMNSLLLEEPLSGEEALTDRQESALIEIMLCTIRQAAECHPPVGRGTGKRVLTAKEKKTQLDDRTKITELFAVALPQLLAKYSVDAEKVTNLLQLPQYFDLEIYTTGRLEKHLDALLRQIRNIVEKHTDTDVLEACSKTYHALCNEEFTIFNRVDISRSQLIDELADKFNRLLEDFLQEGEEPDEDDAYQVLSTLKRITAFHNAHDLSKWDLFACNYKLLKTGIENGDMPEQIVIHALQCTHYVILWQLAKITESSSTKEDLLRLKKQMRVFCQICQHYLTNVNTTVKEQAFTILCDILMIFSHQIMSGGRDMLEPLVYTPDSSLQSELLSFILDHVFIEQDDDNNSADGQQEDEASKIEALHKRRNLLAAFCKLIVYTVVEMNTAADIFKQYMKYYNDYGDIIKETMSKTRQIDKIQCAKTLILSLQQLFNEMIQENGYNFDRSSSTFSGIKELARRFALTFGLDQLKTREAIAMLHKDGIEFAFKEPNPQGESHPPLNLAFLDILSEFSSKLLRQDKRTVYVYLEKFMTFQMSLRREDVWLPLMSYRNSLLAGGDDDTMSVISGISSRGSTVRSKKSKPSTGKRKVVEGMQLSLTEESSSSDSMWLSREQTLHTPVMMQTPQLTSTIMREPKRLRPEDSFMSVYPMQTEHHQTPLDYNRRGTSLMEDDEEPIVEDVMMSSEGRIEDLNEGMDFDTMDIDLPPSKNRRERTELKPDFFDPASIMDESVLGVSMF

[2] = molecular target: T2, SA1 (STAG1) (UniProt Q8WVM7 1-1258)
T2 sequence: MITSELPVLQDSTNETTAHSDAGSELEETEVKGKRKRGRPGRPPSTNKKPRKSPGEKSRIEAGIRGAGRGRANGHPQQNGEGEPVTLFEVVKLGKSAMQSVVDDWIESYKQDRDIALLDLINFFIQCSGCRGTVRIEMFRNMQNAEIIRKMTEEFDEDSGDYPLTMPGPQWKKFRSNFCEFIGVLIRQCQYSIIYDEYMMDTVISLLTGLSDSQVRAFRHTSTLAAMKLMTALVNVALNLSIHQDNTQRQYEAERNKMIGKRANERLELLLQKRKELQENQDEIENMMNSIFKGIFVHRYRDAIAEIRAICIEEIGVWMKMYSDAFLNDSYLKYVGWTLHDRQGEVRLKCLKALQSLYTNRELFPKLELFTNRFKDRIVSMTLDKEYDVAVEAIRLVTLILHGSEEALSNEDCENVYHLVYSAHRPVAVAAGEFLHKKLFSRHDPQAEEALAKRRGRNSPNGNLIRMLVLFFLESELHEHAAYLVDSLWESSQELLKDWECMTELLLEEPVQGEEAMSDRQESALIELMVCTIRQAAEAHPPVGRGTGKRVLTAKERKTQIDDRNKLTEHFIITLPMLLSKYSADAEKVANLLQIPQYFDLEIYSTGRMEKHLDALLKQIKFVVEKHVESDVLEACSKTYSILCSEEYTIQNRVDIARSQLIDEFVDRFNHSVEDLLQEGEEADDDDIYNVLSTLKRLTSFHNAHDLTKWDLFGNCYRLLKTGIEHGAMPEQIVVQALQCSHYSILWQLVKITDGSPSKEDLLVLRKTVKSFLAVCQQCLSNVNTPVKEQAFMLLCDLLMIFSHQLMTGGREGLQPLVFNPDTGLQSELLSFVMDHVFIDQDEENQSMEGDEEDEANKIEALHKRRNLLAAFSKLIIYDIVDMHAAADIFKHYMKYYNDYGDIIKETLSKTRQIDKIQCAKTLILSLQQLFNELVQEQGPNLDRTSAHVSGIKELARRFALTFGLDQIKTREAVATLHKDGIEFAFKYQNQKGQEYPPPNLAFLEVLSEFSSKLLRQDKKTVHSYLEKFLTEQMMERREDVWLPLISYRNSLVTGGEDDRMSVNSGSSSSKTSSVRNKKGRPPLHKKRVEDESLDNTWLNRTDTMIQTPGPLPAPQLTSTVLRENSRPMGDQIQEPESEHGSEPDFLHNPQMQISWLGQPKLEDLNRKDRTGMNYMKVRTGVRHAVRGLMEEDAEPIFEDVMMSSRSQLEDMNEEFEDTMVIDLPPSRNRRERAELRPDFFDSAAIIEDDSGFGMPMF

[3] = molecular target: EWSR1 (UniProt Q01844 1-656)
Sequence of EWSR1 (Q01844 whole entry): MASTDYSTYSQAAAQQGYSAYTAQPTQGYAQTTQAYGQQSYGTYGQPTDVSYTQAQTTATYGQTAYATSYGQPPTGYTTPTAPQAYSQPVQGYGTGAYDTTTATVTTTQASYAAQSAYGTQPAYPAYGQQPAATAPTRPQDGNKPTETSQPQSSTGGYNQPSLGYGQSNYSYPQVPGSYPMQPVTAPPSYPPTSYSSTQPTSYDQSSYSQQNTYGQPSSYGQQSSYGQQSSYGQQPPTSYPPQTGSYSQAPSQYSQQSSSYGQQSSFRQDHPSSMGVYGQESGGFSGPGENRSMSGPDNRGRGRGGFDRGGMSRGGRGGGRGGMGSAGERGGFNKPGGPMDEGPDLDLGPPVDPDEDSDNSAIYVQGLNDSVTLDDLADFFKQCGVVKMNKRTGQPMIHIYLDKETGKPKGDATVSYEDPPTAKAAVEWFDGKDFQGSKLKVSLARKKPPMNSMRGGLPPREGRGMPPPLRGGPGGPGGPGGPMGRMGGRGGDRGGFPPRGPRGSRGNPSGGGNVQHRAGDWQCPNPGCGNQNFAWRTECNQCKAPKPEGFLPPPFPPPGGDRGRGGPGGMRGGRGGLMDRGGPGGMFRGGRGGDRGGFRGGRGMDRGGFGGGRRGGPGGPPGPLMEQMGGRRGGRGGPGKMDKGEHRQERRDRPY

Row | Binder | Kd [1] [nM] | Kd [2] [nM] | Kd [3] [nM]
1 | Model R-loop (mixed) RNA: GCAGCUGGCACGACAGGUAUGAAUC DNA 1: GCCAGGGACGAGGTGAACCTGCAGGTGGGCGGCTACTACTTAGATGTCATCCGAGGCTTATTGGTAGAATTCGGCAGCGTCATGCGACGGC DNA 2: GCCGTCGCATGACGCTGCCGAATTCTACCACGCGATTCATACCTGTCGTGCCAGCTGCTTTGCCCACCTGCAGGTTCACCTCGTCCCTGGC | 36 ± 4 | 38.4 ± 8.7 | 28.6 ± 0.8
2 | RNA:DNA hybrid (45 bp) (DNA:RNA) RNA: CUGGAUCCGUACAGUGUAAGGGUGAGUGGUUGGGUGUGUGGGUGU DNA: ACACCCACACACCCAACCACTCACCCTTACACTGTACGGATCCAG | 31.7 ± 1.5 | 44 ± 5.9 | 27.7 ± 4.1
3 | CUGGAUCCGUACAGUGUAAGGGUGAGUGGUUGGGUGUGUGGGUGU (ssRNA) [45 nt RNA] | 11.4 ± 1.2 | 6 ± 0.6 | –
4 | 66 nt RNA-1 (ssRNA) RNA: CUGGAUCCGUACAGUGUAAGGGUGAGUGGUUGGGUGUGUGGGUGUUGAUGUAGAACAAGAAUUCGA | 7.2 ± 2.5 | 3.2 ± 0.3 | 35.1 ± 1.8
5 | 66 nt RNA-2 (ssRNA) RNA: UCGAAUUCUUGUUCUACAUCAACACCCACACACCCAACCACUCACCCUUACACUGUACGGAUCCAG | 5.1 ± 0.6 | 3 ± 0.1 | –
6 | RNA:DNA hybrid (25 bp) (DNA:RNA) RNA: GCAGCUGGCACGACAGGUAUGAAUC DNA: GATTCATACCTGTCGTGCCAGCTGC | 43.3 ± 5.6 | 58.6 ± 1.5 | –
7 | GCAGCUGGCACGACAGGUAUGAAUC (ssRNA) [25 nt RNA (R-loop oligo)] | 251 ± 3.2 | 164 ± 37.4 | 134.2 ± 0.04
